Source: paper doi:10.1101/2025.08.13.669063

What was measured:
[1] = biological target: cobalamin binding domains of Thermus thermophilus CarH (TtCBD) (Thermus thermophilus); experiment: time-resolved X-ray solution scattering
[2] = biological target: cobalamin binding domains of Thermus thermophilus CarH (TtCBD) (Thermus thermophilus); experiment: crystal structure

stoichiometry N [1]: 4 | time constant of tetramer dissociation after photoexcitation [1]: 620 ms | stoichiometry N [2]: 4
Substance: cobalamin binding domains of Thermus thermophilus CarH (TtCBD) (domain or fragment)
